Target: T1, human integrin avb6 (human, UniProt P06756)
T1 chain 1: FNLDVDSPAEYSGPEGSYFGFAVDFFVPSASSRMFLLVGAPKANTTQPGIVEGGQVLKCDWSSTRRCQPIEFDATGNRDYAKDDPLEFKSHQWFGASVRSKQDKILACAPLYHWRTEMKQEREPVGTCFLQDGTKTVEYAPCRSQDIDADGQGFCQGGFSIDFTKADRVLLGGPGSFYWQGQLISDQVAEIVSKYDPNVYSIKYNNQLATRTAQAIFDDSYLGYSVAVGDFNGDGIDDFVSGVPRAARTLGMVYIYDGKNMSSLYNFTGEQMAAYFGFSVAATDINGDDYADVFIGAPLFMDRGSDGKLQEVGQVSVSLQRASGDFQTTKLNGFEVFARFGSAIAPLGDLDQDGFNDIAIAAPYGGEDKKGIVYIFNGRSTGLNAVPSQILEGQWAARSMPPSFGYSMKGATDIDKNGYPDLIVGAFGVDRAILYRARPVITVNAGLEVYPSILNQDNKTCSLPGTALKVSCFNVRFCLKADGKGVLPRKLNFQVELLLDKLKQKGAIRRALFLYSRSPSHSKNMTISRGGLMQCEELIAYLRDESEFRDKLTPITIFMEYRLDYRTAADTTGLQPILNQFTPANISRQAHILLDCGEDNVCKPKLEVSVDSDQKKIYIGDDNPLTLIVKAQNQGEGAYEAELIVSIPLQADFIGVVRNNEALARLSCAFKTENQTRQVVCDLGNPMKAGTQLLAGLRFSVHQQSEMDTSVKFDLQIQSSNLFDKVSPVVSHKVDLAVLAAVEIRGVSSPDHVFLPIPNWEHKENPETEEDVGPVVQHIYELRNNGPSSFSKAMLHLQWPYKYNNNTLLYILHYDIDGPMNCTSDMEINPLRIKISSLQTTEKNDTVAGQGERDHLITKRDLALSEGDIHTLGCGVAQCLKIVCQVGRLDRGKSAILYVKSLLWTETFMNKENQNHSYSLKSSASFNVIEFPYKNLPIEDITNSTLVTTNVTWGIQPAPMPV
T1 chain 2: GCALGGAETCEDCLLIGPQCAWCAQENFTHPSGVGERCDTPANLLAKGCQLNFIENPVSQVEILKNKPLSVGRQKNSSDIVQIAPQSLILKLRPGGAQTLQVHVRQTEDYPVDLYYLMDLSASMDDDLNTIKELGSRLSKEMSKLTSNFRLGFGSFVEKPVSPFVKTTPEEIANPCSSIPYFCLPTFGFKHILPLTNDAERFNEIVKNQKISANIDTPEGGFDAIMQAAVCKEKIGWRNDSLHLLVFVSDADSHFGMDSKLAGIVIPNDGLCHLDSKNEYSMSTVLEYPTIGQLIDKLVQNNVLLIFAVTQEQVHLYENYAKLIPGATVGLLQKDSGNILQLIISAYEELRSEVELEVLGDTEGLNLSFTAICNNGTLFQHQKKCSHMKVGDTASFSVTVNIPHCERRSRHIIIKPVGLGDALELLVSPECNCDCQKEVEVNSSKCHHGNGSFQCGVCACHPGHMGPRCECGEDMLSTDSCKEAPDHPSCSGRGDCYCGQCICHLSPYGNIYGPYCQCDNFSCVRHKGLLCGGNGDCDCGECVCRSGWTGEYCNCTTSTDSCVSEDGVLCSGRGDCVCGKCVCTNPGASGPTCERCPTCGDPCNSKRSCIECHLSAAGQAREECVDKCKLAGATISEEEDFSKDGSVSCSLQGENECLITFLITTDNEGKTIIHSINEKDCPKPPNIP
Test: SPR

binding result: no binding
B1: ADWA11 2.4 IgG (antibody)
chain 1: EVQLVESGGGLVQPGGSLRLSCAASGFNIKDYYMNWVRQAPGKGLEWVGWIDPDQGNTIYEPKFQGRFTISADTSKNSAYLQMNSLRAEDTAVYYCARRLLMDYWGQGTLVTVSSASTKGPSVFPLAPSSKSTSGGTAALGCLVKDYFPEPVTVSWNSGALTSGVHTFPAVLQSSGLYSLSSVVTVPSSSLGTQTYICNVNHKPSNTKVDKKVEPKSCDKTHTCPPCPAPEAAGAPSVFLFPPKPKDTLMISRTPEVTCVVVDVSHEDPEVKFNWYVDGVEVHNAKTKPREEQYNSTYRVVSVLTVLHQDWLNGKEYKCKVSNKALPAPIEKTISKAKGQPREPQVYTLPPSREEMTKNQVSLTCLVKGFYPSDIAVEWESNGQPENNYKTTPPVLDSDGSFFLYSKLTVDKSRWQQGNVFSCSVMHEALHNHYTQKSLSLSPGK
chain 2: DIQMTQSPSSLSASVGDRVTITCRSTKSLSHFNGNTYLFWYQQKPGKAPKRLIYYMSSLASGVPSRFSGSGSGTDFTLTISSLQPEDFATYYCQQSLEYPFTFGGGTKVEIKRTVAAPSVFIFPPSDEQLKSGTASVVCLLNNFYPREAKVQWKVDNALQSGNSQESVTEQDSKDSTYSLSSTLTLSKADYEKHKVYACEVTHQGLSSPVTKSFNRGEC
